This passage reports Kd results from publication PMC5690536.

The target of this experiment is GST-CD11a αI-domain. Briefly: radioligand binding.

pKd: −log10 of the molar value.

For orientation: pKd means the Kd on a negative log10 scale, so that one unit is a factor of ten. Higher therefore signals a small Kd.

“32P-labeled pkISG15 (from UniProt P05161 1-157) (natural protein)” showed a pKd of 6.18.
